Measurements: patent publication US5445951A, “Regioselective enzymatic deacylation of sucrose esters in anhydrous organic media” (priority 1993, dated 1995)

Legend:
[1] = as obtained from supplier; cited from earlier work
[2] = SOA deacetylation catalyzed by pH precipitated enzymes in diisopropyl ether; assay type: biochemical; conditions: for buffer pH (optimal pH for enzyme activity in anhydrous solvents): SOA deacetylation; for SheptaAs / ShexaAs / SOA: diisopropyl ether, 24 hrs incubation, HPLC; for SOA: residual SOA
Procedure: A wide variety of hydrolytic enzymes were initially screened for their ability to regioselectively deacetylate SOA in organic solvents. […] Enzyme activity is dependent upon the presence of a minimum shell of water surrounding the enzyme. […] It is known that one way to improve the catalytic power of an enzyme in organic solvent is to use it in the right ionic state.
(§1) The pH of commercial powdered enzymes was adjusted in the following way: The enzyme (3 g) was dissolved in 25 ml of an appropriate buffer and the pH adjusted with dilute NaOH or citric/phosphoric acid solution. Cold acetone (37.5 ml at -20° C.) was added and the precipitate collected on a medium porosity glass funnel and dried overnight at 2 millitorr. The protein pellet was ground to a fine powder and equilibrated at 4° C. over saturated aqueous potassium carbonate (RH: 43%) for 24 hrs.
(§2) Enzyme and Solvent Screening for SOA Deacetylation. A scintillation vial was charged successively with 100 mg of powdered enzyme as received or prepared as described and 1.0 ml of 20 mM sucrose octaacetate (SOA) dissolved in an organic solvent. Following a 5 sec sonication, the vial was incubated in a controlled-temperature shaker at 45° C. and 300 RPM for 24 hrs. A 200 μl aliquot of the reaction mixture was withdrawn and centrifuged. The supernatant was collected and evaporated under a stream of N2. The residue was reconstituted in 200 μl of acetonitrile and 10 μl of this solution was analyzed by HPLC.

[3] = Activity and regioselectivity of enzymes for SOA deacetylation; assay type: biochemical; conditions: for buffer pH (optimal pH for enzyme activity in anhydrous diisopropyl ether): SOA deacetylation; for % conv: total of all sucrose hepta and hexa acetates; for regioselectivity of SOA deacetylation: in words
Procedure: An important aspect of this work was to assign, unequivocally, the structures of all sucrose hepta-, hexa-, and pentaacetates obtained by enzymatic deacetylation of SOA. These structures were assigned by perdeuterioacetylation followed by ^1 H-NMR, as described by Rathbone E. B., Carbohydr. Res., 205,402 (1990).
HPLC analysis. Routine screening was performed on a Supelcosil LC-18-DB column (150×4.6 mm, 5μ) using an isocratic mode with either acetonitrile/water (35/65) or acetonitrile/water (60/40) as eluant for reactions involving sucrose octaacetate (SOA) and sucrose octapropionate (SOP), respectively. All flow rates were 1.0 ml/min with UV detection at 220 nm. To identify all products from SOA deacetylation, a gradient mode was employed using 15% to 35% acetonitrile in water over 40 minutes followed by 35/65 acetonitrile/water isocratic elution for 20 minutes. To screen nucleophiles for SOA deacetylation, an isocratic elution mode was employed using 30/70 acetonitrile/water for 16 min followed by a gradient from 30% to 35% acetonitrile in water over 5 min and finally isocratic elution using 35/65 acetonitrile/water for 16 min. To assess the enzyme regiochemistry for SOA deacetylation, an isocratic elution mode was employed using 25/75 acetonitrile/water for 55 minutes.
Identification of the Sucrose Hepta, Hexa or Pentaacetates Obtained Enzymatically. The fraction of sucrose hepta, hexa or pentaacetates were identified as follows. The compound(s) of interest was dissolved in 1.0 ml 99.0 atom % pyridine--d5 followed by addition of 1.0 ml 99 +atom % acetic anhydride--d6. The resulting solution was shaken at 45° C. and 300 RPM for several hours until TLC analysis (silica gel, 9/1 CHCl3 /MeOH) indicated complete reaction. The reaction mixture was evaporated in vacuo and the residue washed several times with water to remove residual pyridine-d5 and/or acetic anhydride-d6. The resulting oily solid was dissolved in 5 ml off chloroform and passed through Whatmann 12.5 cm 1 PS silicone treated filter paper to remove water.
as §1, §2

[4] = SOP deacylation catalyzed by pH precipitated enzymes in diisopropyl ether; assay type: biochemical; conditions: for buffer pH (optimal pH for enzyme activity in anhydrous media): SOP deacylation; for SOP / SheptaP's / ShexaP's: diisopropyl ether, 24 hrs
Procedure: To increase the number and/or activities of enzymes active with SOP, pH precipitation experiments, as described for SOA, were undertaken.
as §1

[5] = SOP hydrolytic enzyme screen in heptane with n-butanol; assay type: biochemical; conditions: 24 hrs; for SheptaP's ([…]): HPLC peak […]; for SOP: residual SOP; for SheptaP's ([…]): HPLC peak 8.2 min
Procedure: To extend the scope and utility of this study, sucrose octapropionate was synthesized and used as substrate in enzyme catalyzed deacylation reactions. […] The hydrolytic enzymes were screened for their capability to deacylate SOP in heptane with n-butanol as the nucleophile. After 24 hrs incubation aliquots were analyzed by HPLC.
as §2, with “screening” for “and Solvent Screening”, “SOP deacylation in heptane.” for “SOA Deacetylation.”, “octapropionate (SOP) and 200 mM butanol” for “octaacetate (SOA)”, “and” for “and evaporated under a stream of N2. The residue was reconstituted in 200 μl of acetonitrile and”

lipase AY 30 = assay: Effect of the solvent on lipase AY 30 SOA deacetylation; assay type: biochemical, Candida cylindracea; conditions: lipase AY 30, solvent as labelled, 24 hrs
[6] = assay type: physicochemical; conditions: estimated from known log P values / increments
Source text: ^a) log P is a measurement of the solvent hydrophobicity (logarithm o
the solvent partition coefficient between noctanol and water [Rekker, "Th
Hydrophobic Fragmental Constant", Elsevier, Amsterdam (1977)]). The log P
values from this table are from Laane et al. , Biotechnol Bioeng. 30,81

[7] = Solubility in hydrophobic solvents; assay type: physicochemical; conditions: more hydrophobic solvents, e.g., hexane, cyclohexane, heptane, octane
[8] = HPLC sucrose heptaacetate peak height

chymotrypsin
enzyme activity [1]: 48 U/mg
buffer pH (optimal pH for enzyme activity in anhydrous solvents) [2]: 8.0
SheptaAs [2]: 2.5%
ShexaAs [2]: 0%
SOA [2]: 97.5%
buffer pH (optimal pH for enzyme activity in anhydrous diisopropyl ether) [3]: 8.0
% conv [3]: < 6%
buffer pH (optimal pH for enzyme activity in anhydrous media) [4]: 8.0
SOP [4]: 98.2%
SheptaP's [4]: 1.8%
ShexaP's [4]: 0%
SheptaP's ([…]) [5]: 3.9
SOP [5]: 96.1%

bromelain
enzyme activity [1]: 22.9 U/mg
SheptaP's (9.6 min) ([5]; HPLC peak 9.6 min): 0.3
SheptaP's ([…]) [5]: 0.7
SOP [5]: 99.0%

CC1(C)CCC(C)(C)O1 [2,2,5,5-tetramethyl THF, 2,2,5,5-tetramethyltetrahydrofuran]
SOA (lipase AY 30): 68.4%
SheptaA (lipase AY 30): 31.6%
log P [6]: 2.5

CCOCCOCC [ethylene glycol diethyl ether]
SOA (lipase AY 30): 85.0%
SheptaA (lipase AY 30): 13.5%
ShexaA (lipase AY 30): 1.5%
log P [6]: 0.87

CCC(=O)OC[C@H]1O[C@@](COC(=O)CC)(O[C@H]2O[C@H](COC(=O)CC)[C@@H](OC(=O)CC)[C@H](OC(=O)CC)[C@H]2OC(=O)CC)[C@@H](OC(=O)CC)[C@@H]1OC(=O)CC [SOP, sucrose octapropionate]
solubility versus SOA [7]: significantly enhanced solubility

CC1CCCO1 (centres unmarked) [2-methyl THF, 2-methyltetrahydrofuran]
SOA (lipase AY 30): 96.2%
SheptaA (lipase AY 30): 3.8%
ShexaA (lipase AY 30): 0%
log P [6]: 1.0

B1: papain: Sigma, Papaya latex (protein, UniProt P00784 134-345, looked up)
Papain: IPEYVDWRQKGAVTPVKNQGSCGSCWAFSAVVTIEGIIKIRTGNLNEYSEQELLDCDRRSYGCNGGYPWSALQLVAQYGIHYRNTYPYEGVQRYCRSREKGPYAAKTDGVRQVQPYNEGALLYSIANQPVSVVLEAAGKDFQLYRGGIFVGPCGNKVDHAVAAVGYGPNYILIKNSWGTGWGENGYIRIKRGTGNSYGVCGLYTSSFYPVKN
enzyme activity [1]: 2.8 U/mg
SheptaP's (7.0 min) ([5]; HPLC peak 7.0 min): 0.3
SheptaP's ([…]) [5]: 0.9
SOP [5]: 98.8%

B2: lipase type II: Sigma, porcine pancreas, 50 U/mg (protein, UniProt P00591 1-450, looked up)
Pancreatic triacylglycerol …: SEVCFPRLGCFSDDAPWAGIVQRPLKILPWSPKDVDTRFLLYTNQNQNNYQELVADPSTITNSNFRMDRKTRFIIHGFIDKGEEDWLSNICKNLFKVESVNCICVDWKGGSRTGYTQASQNIRIVGAEVAYFVEVLKSSLGYSPSNVHVIGHSLGSHAAGEAGRRTNGTIERITGLDPAEPCFQGTPELVRLDPSDAKFVDVIHTDAAPIIPNLGFGMSQTVGHLDFFPNGGKQMPGCQKNILSQIVDIDGIWEGTRDFVACNHLRSYKYYADSILNPDGFAGFPCDSYNVFTANKCFPCPSEGCPQMGHYADRFPGKTNGVSQVFYLNTGDASNFARWRYKVSVTLSGKKVTGHILVSLFGNEGNSRQYEIYKGTLQPDNTHSDEFDSDVEVGDLQKVKFIWYNNNVINPTLPRVGASKITVERNDGKVYDFCSQETVREEVLLTLNPC
enzyme activity [1]: 50 U/mg
buffer pH (optimal pH for enzyme activity in anhydrous solvents) [2]: 7.0
SheptaAs [2]: 13.5%
ShexaAs [2]: 0.6%
SOA [2]: 85.9%
regiochemistry 4'OH [3, 8]: 1
regiochemistry 6'OH [3, 8]: 1
buffer pH (optimal pH for enzyme activity in anhydrous diisopropyl ether) [3]: 7.0
regioselectivity of SOA deacetylation [3]: the primary deacetylation product is the 4'- OH heptaacetate
regioselectivity of SOA deacetylation ([3]; listed as Porcine pancreatic lipase): at the 4' position
% conv [3]: 14.1%
buffer pH (optimal pH for enzyme activity in anhydrous media) [4]: 7.0
SOP [4]: 96.5%
SheptaP's [4]: 3.5%
ShexaP's [4]: 0%
capability of deacetylating SOP ([4]; pH precipitated, in words): capable of deacetylating SOP
SheptaP's (9.2 min) ([5]; HPLC peak 9.2 min): 0.2
SheptaP's ([…]) [5]: 1.7
BuOpropionate ([5]; butyl propionate formed, peak area): 59 cAUs
SOP [5]: 98.1%
